Data taken from US20230129812A1, “COMPOSITIONS AND METHODS FOR TREATING PULMONARY HYPERTENSION” (Acceleron Pharma Inc., priority 2020, published 2023).

T1: activin A (Homo sapiens, UniProt P08476)
T1 sequence (P08476 311-426): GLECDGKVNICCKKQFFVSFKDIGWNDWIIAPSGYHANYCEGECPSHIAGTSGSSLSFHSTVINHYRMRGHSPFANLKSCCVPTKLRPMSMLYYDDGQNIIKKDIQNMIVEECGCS

T2: GDF11 (Homo sapiens, UniProt O95390)
T2 sequence (O95390 299-407): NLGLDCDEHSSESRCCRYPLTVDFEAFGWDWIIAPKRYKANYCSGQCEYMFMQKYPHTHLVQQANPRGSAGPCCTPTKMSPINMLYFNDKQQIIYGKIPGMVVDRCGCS

T3: GDF8 (Homo sapiens, UniProt O14793)
T3 sequence (O14793 267-375): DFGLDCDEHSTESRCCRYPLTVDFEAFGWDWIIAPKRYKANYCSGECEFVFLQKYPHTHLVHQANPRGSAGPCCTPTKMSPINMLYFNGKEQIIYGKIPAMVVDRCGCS


Columns and labels:
activin A [1] = biological target: T1, activin A; experiment: A-204 reporter gene assay, pGL3(CAGA)12 luciferase; assay type: cell-based; parameters: key to Activin Inhibition Activity: +: Poor activity (roughly 1 × 10^−6 KI); ++: Moderate activity (roughly 1 × 10^−7 KI); +++: Good (wild-type) activity (roughly 1 × 10^−8 KI); ++++: Greater than wild-type activity; details: Table 9; cell-based A-204 assay
Excerpt: (§1) An A-204 reporter gene assay was used to evaluate the effects of ActRIIB-Fc proteins and ActRIIB variant Fc fusion polypeptides on signaling by GDF-11 and activin A. Cell line: human rhabdomyosarcoma (derived from muscle). Reporter vector: pGL3(CAGA)12 (described in Dennler et al, 1998, EMBO 17: 3091-3100). The CAGA12 motif is present in TGF-beta responsive genes (e.g., PAI-1 gene), so this vector is of general use for factors signaling through SMADs.
(§2) Day 1: Split A-204 cells into 48-well plate.
(§3) Day 2: A-204 cells transfected with 10 ug pGL3(CAGA)12 or pGL3(CAGA)12(10 ug)+pRLCMV (1 pg) and Fugene.
(§4) Day 3: Add factors (diluted into medium+0.1% BSA). Inhibitors need to be preincubated with factors for 1 hr before adding to cells. Six hrs later, cells were rinsed with PBS and lysed.
(§5) This is followed by a luciferase assay.
(§6) Activity of ActRIIB-Fc proteins and ActRIIB variant Fc fusion polypeptides was tested in a cell-based assay as described above. Some variants were tested in different C-terminal truncation constructs. As discussed above, truncations of five or fifteen amino acids caused reduction in activity. […]

GDF11 = biological target: T2, GDF11; experiment: A-204 reporter gene assay, pGL3(CAGA)12 luciferase; assay type: cell-based; parameters: key to GDF11 Inhibition Activity: +: Poor activity (roughly 1 × 10^−6 KI); ++: Moderate activity (roughly 1 × 10^−7 KI); +++: Good (wild-type) activity (roughly 1 × 10^−8 KI); ++++: Greater than wild-type activity; details: Table 9; cell-based A-204 assay
Excerpt: as §1, §2, §3, §4, §5, §6

GDF8 = biological target: T3, GDF8; experiment: Biacore assay, ActRIIB-Fc captured with anti-hFc antibody, ligand injected (Example 8); assay type: binding; details: GDF8; Table 10
Description: (§7) Binding of certain ActRIIB-Fc proteins and ActRIIB variant Fc fusion polypeptides to ligands was tested in a Biacore™ assay.
(§8) The ActRIIB-Fc variants or wild-type protein were captured onto the system using an anti-hFc antibody. Ligands were injected and flowed over the captured receptor proteins.

activin A [2] = biological target: T1, activin A; experiment: as above; assay type: binding; details: Activin A; Table 10
Description: as §7, §8

| Activin Inhibition Activity (activin A [1]) | GDF11 Inhibition Activity (GDF11) | Koff (GDF8) [s⁻¹] | Koff (activin A [2]) [s⁻¹] | Molecule |
| --- | --- | --- | --- | --- |
| + (Poor activity (roughly 1 × 10^−6 KI)) | + (Poor activity (roughly 1 × 10^−6 KI)) |  |  | R64 L79P 20-134: ActRIIB-Fc variation R64 L79P, amino acids 20-134 of SEQ ID NO:1 (protein, Fc fusion partner not cited) GRGEAETRECIYYNANWELERTNQSGLERCEGEQDKRLHCYASWRNSSGTIELVKKGCWPDDFNCYDRQECVATEENPQVYFCCCEGNFCNERFTHLPEAGGPEVTYEPPPTAPT |
| + (Poor activity (roughly 1 × 10^−6 KI)) | + (Poor activity (roughly 1 × 10^−6 KI)) |  |  | R64 L79P K74A 20-134: ActRIIB-Fc variation R64 L79P K74A, amino acids 20-134 of SEQ ID NO:1 (protein, Fc fusion partner not cited) GRGEAETRECIYYNANWELERTNQSGLERCEGEQDKRLHCYASWRNSSGTIELVAKGCWPDDFNCYDRQECVATEENPQVYFCCCEGNFCNERFTHLPEAGGPEVTYEPPPTAPT |
| + (Poor activity (roughly 1 × 10^−6 KI)) | + (Poor activity (roughly 1 × 10^−6 KI)) |  |  | R64N 20-134: ActRIIB-Fc variation R64N, amino acids 20-134 of SEQ ID NO:1 (protein, Fc fusion partner) GRGEAETRECIYYNANWELERTNQSGLERCEGEQDKRLHCYASWNNSSGTIELVKKGCWLDDFNCYDRQECVATEENPQVYFCCCEGNFCNERFTHLPEAGGPEVTYEPPPTAPT |
| ++++ | ++++ | 2.03e-05 |  | ActRIIB(K74A 20-134)-hFc: ActRIIB-Fc variant with K74A substitution, residues 20-134 (protein) GRGEAETRECIYYNANWELERTNQSGLERCEGEQDKRLHCYASWRNSSGTIELVAKGCWLDDFNCYDRQECVATEENPQVYFCCCEGNFCNERFTHLPEAGGPEVTYEPPPTAPTGGGTHTCPPCPAPELLGGPSVFLFPPKPKDTLMISRTPEVTCVVVDVSHEDPEVKFNWYVDGVEVHNAKTKPREEQYNSTYRVVSVLTVLHQDWLNGKEYKCKVSNKALPVPIEKTISKAKGQPREPQVYTLPPSREEMTKNQVSLTCLVKGFYPSDIAVEWESNGQPENNYKTTPPVLDSDGSFFLYSKLTVDKSRWQQGNVFSCSVMHEALHNHYTQKSLSLSPGK |
|  |  | 0.00018 | 0.000417 | ActRIIB(P129S, P130R 20-134)-hFc: ActRIIB-Fc variant with P129S and P130R substitutions, residues 20-134 (protein) GRGEAETRECIYYNANWELERTNQSGLERCEGEQDKRLHCYASWRNSSGTIELVKKGCWLDDFNCYDRQECVATEENPQVYFCCCEGNFCNERFTHLPEAGGPEVTYEPSRTAPTGGGTHTCPPCPAPELLGGPSVFLFPPKPKDTLMISRTPEVTCVVVDVSHEDPEVKFNWYVDGVEVHNAKTKPREEQYNSTYRVVSVLTVLHQDWLNGKEYKCKVSNKALPVPIEKTISKAKGQPREPQVYTLPPSREEMTKNQVSLTCLVKGFYPSDIAVEWESNGQPENNYKTTPPVLDSDGSFFLYSKLTVDKSRWQQGNVFSCSVMHEALHNHYTQKSLSLSPGK |

Continued, molecule first:

| Molecule | Activin Inhibition Activity (activin A [1]) | GDF11 Inhibition Activity (GDF11) | Koff (GDF8) [s⁻¹] | Koff (activin A [2]) [s⁻¹] |
| --- | --- | --- | --- | --- |
| R64 A24N 20-119: ActRIIB-Fc variation R64 A24N, amino acids 20-119 of SEQ ID NO:1 (protein, Fc fusion partner not cited) GRGENETRECIYYNANWELERTNQSGLERCEGEQDKRLHCYASWRNSSGTIELVKKGCWLDDFNCYDRQECVATEENPQVYFCCCEGNFCNERFTHLPEA | ++ (Moderate activity (roughly 1 × 10^−7 KI)) | ++ (Moderate activity (roughly 1 × 10^−7 KI)) |  |  |
| R64 A24N K74A 20-119: ActRIIB-Fc variation R64 A24N K74A, amino acids 20-119 of SEQ ID NO:1 (protein, Fc fusion partner not cited) GRGENETRECIYYNANWELERTNQSGLERCEGEQDKRLHCYASWRNSSGTIELVAKGCWLDDFNCYDRQECVATEENPQVYFCCCEGNFCNERFTHLPEA | + (Poor activity (roughly 1 × 10^−6 KI)) | + (Poor activity (roughly 1 × 10^−6 KI)) |  |  |
| A64 20-134: ActRIIB-Fc with alanine at position 64, amino acids 20-134 of SEQ ID NO:1 (protein, Fc fusion partner not cited) GRGEAETRECIYYNANWELERTNQSGLERCEGEQDKRLHCYASWANSSGTIELVKKGCWLDDFNCYDRQECVATEENPQVYFCCCEGNFCNERFTHLPEAGGPEVTYEPPPTAPT | + (Poor activity (roughly 1 × 10^−6 KI)) | + (Poor activity (roughly 1 × 10^−6 KI)) |  |  |
| ActRIIB(R64K 20-129)-hFc: ActRIIB-Fc variant with R64K substitution, residues 20-129 (protein) GRGEAETRECIYYNANWELERTNQSGLERCEGEQDKRLHCYASWKNSSGTIELVKKGCWLDDFNCYDRQECVATEENPQVYFCCCEGNFCNERFTHLPEAGGPEVTYEPPGGGTHTCPPCPAPELLGGPSVFLFPPKPKDTLMISRTPEVTCVVVDVSHEDPEVKFNWYVDGVEVHNAKTKPREEQYNSTYRVVSVLTVLHQDWLNGKEYKCKVSNKALPVPIEKTISKAKGQPREPQVYTLPPSREEMTKNQVSLTCLVKGFYPSDIAVEWESNGQPENNYKTTPPVLDSDGSFFLYSKLTVDKSRWQQGNVFSCSVMHEALHNHYTQKSLSLSPGK | +++ (Good (wild-type) activity (roughly 1 × 10^−8 KI)) | +++ (Good (wild-type) activity (roughly 1 × 10^−8 KI)) | 0.000209 | 0.000628 |
| R64 20-129: ActRIIB-Fc R64, amino acids 20-129 of SEQ ID NO:1 (protein, Fc fusion partner not cited) GRGEAETRECIYYNANWELERTNQSGLERCEGEQDKRLHCYASWRNSSGTIELVKKGCWLDDFNCYDRQECVATEENPQVYFCCCEGNFCNERFTHLPEAGGPEVTYEPP | +++ (Good (wild-type) activity (roughly 1 × 10^−8 KI)) | +++ (Good (wild-type) activity (roughly 1 × 10^−8 KI)) |  |  |
| R64 P129S P130A 20-134: ActRIIB-Fc variation R64 P129S P130A, amino acids 20-134 of SEQ ID NO:1 (protein) GRGEAETRECIYYNANWELERTNQSGLERCEGEQDKRLHCYASWRNSSGTIELVKKGCWLDDFNCYDRQECVATEENPQVYFCCCEGNFCNERFTHLPEAGGPEVTYEPSATAPTGGGTHTCPPCPAPELLGGPSVFLFPPKPKDTLMISRTPEVTCVVVDVSHEDPEVKFNWYVDGVEVHNAKTKPREEQYNSTYRVVSVLTVLHQDWLNGKEYKCKVSNKALPVPIEKTISKAKGQPREPQVYTLPPSREEMTKNQVSLTCLVKGFYPSDIAVEWESNGQPENNYKTTPPVLDSDGSFFLYSKLTVDKSRWQQGNVFSCSVMHEALHNHYTQKSLSLSPGK | +++ (Good (wild-type) activity (roughly 1 × 10^−8 KI)) | +++ (Good (wild-type) activity (roughly 1 × 10^−8 KI)) |  |  |
